Data reported in US20230140293A1.

Columns and labels:
Assay in all cases: cell-based or functional assay
[1] = target: CH0505.w4.3 Env, Env-pseudotyped virus produced in 293T cells (HIV-1)
[2] = target: CH0505TF Env, Env-pseudotyped virus produced in 293T cells (HIV-1)
[3] = target: CH0505TF Env, pseudotyped virus produced in 293S GnTI- cells (HIV-1)
[4] = target: CH0505TF.G458Y Env, Env-pseudotyped virus produced in 293T cells (HIV-1)
[5] = target: CH0505TF.G458Y Env, pseudotyped virus produced in 293S GnTI- cells (HIV-1)
[6] = target: CH0505TF.gly3.197 Env, Env-pseudotyped virus produced in 293T cells (HIV-1)
[7] = target: CH0505TF.gly3.197 Env, pseudotyped virus produced in 293S GnTI- cells (HIV-1)
[8] = target: CH0505TF.gly3.276 Env, Env-pseudotyped virus produced in 293T cells (HIV-1)
[9] = target: CH0505TF.gly3.276 Env, pseudotyped virus produced in 293S GnTI- cells (HIV-1)
[10] = target: CH0505TF.gly3.461 Env, Env-pseudotyped virus produced in 293T cells (HIV-1)
[11] = target: CH0505TF.gly3.461 Env, pseudotyped virus produced in 293S GnTI- cells (HIV-1)
[12] = target: CH0505TF.gly4 Env, Env-pseudotyped virus produced in 293T cells (HIV-1)
[13] = target: CH0505TF.gly4 Env, pseudotyped virus produced in 293S GnTI- cells (HIV-1)
[14] = target: HIV-1 CH0505TF (CH505 transmitted/founder) Env on Env-pseudotyped virus produced in 293T cells (HIV-1)
[15] = target: HIV-1 CH0505TF.G458Y Env on Env-pseudotyped virus produced in 293T cells (HIV-1)
[16] = target: HIV-1 CH0505TF.N280D Env on Env-pseudotyped virus produced in 293T cells (HIV-1)
[17] = target: HIV-1 CH0505TF.S365P Env on Env-pseudotyped virus produced in 293T cells (HIV-1)
[18] = target: HIV-1 426c.DM (N460D/N463D) Env on Env-pseudotyped virus produced in 293T cells (HIV-1)
[19] = target: HIV-1 426c.DM (N460D/N463D) Env on Env-pseudotyped virus produced in 293s/GnTI-/- cells (Man5-enrichment) (HIV-1)
[20] = target: HIV-1 426c.SM (N276D) Env on Env-pseudotyped virus produced in 293T cells (HIV-1)
[21] = target: HIV-1 426c.SM (N276D) Env on Env-pseudotyped virus produced in 293s/GnTI-/- cells (Man5-enrichment) (HIV-1)
[22] = target: HIV-1 426c.TM (N276D/N460D/N463D) Env on Env-pseudotyped virus produced in 293T cells (HIV-1)
[23] = target: HIV-1 426c.TM (N276D/N460D/N463D) Env on Env-pseudotyped virus produced in 293s/GnTI-/- cells (Man5-enrichment) (HIV-1)
[24] = target: HIV-1 Env 426c, Env-pseudotyped virus produced in 293S GnTI- cells (Man5-enriched) (HIV-1 clade C strain 426c)
[25] = target: HIV-1 Env 426c, Env-pseudotyped virus produced in 293T cells (HIV-1 clade C strain 426c)
[26] = target: HIV-1 Env 426c.DM (N460D.N463D), Env-pseudotyped virus produced in 293S GnTI- cells (Man5-enriched) (HIV-1 clade C strain 426c)
[27] = target: HIV-1 Env 426c.DM (N460D.N463D), Env-pseudotyped virus produced in 293T cells (HIV-1 clade C strain 426c)
[28] = target: HIV-1 Env 426c.SM (N276D), Env-pseudotyped virus produced in 293S GnTI- cells (Man5-enriched) (HIV-1 clade C strain 426c)
[29] = target: HIV-1 Env 426c.SM (N276D), Env-pseudotyped virus produced in 293T cells (HIV-1 clade C strain 426c)
[30] = target: HIV-1 Env 426c.TM (N276D.N460D.N463D), Env-pseudotyped virus produced in 293S GnTI- cells (Man5-enriched) (HIV-1 clade C strain 426c)
[31] = target: HIV-1 Env 426c.TM (N276D.N460D.N463D), Env-pseudotyped virus produced in 293T cells (HIV-1 clade C strain 426c)
[32] = target: HIV-1 Env 426c.TM4 (S278R.G471S.N460D.N463D), Env-pseudotyped virus produced in 293S GnTI- cells (Man5-enriched) (HIV-1 clade C strain 426c)
[33] = target: HIV-1 Env 426c.TM4 (S278R.G471S.N460D.N463D), Env-pseudotyped virus produced in 293T cells (HIV-1 clade C strain 426c)
[34] = target: HIV-1 clade C strain 426c Env on Env-pseudotyped virus produced in 293T cells (HIV-1)
[35] = target: HIV-1 clade C strain 426c Env on Env-pseudotyped virus produced in 293s/GnTI-/- cells (Man5-enrichment) (HIV-1)

Substance | IC50 (µg/ml) in TZM-bl [1] | IC50 (µg/ml) in TZM-bl [2] | IC50 (µg/ml) in TZM-bl [3] | IC50 (µg/ml) in TZM-bl [4] | IC50 (µg/ml) in TZM-bl [5] | IC50 (µg/ml) in TZM-bl [6] | IC50 (µg/ml) in TZM-bl [7] | IC50 (µg/ml) in TZM-bl [8] | IC50 (µg/ml) in TZM-bl [9] | IC50 (µg/ml) in TZM-bl [10] | IC50 (µg/ml) in TZM-bl [11] | IC50 (µg/ml) in TZM-bl [12] | IC50 (µg/ml) in TZM-bl [13] | IC50 (µg/ml) in TZM-bl [14] | IC50 (µg/ml) in TZM-bl [15] | IC50 (µg/ml) in TZM-bl [16] | IC50 (µg/ml) in TZM-bl [17] | ID50/IC50 in TZM-bl [18] | ID50/IC50 in TZM-bl [19] | ID50/IC50 in TZM-bl [20] | other results
N6 (antibody) | 0.01 µg/mL | 0.06 µg/mL | 0.016 µg/mL | 0.02 µg/mL | 0.008 µg/mL | 0.01 µg/mL | 0.003 µg/mL | 0.003 µg/mL | 0.004 µg/mL | 0.004 µg/mL | 0.002 µg/mL | 0.001 µg/mL | 0.001 µg/mL | 0.06 µg/mL | 0.02 µg/mL | > 17 µg/mL | 0.02 µg/mL | – | – | – | –
VRC-CH31 (antibody) | 0.05 µg/mL | 0.03 µg/mL | 0.04 µg/mL | 0.023 µg/mL | 0.06 µg/mL | 0.01 µg/mL | 0.01 µg/mL | 0.002 µg/mL | 0.001 µg/mL | 0.09 µg/mL | 0.007 µg/mL | 0.002 µg/mL | 0.001 µg/mL | 0.03 µg/mL | < 0.01 µg/mL | > 25 µg/mL | 1.2 µg/mL | 0.73 µg/mL | 0.02 µg/mL | > 25 µg/mL | ID50/IC50 in TZM-bl [21]: 0.7 µg/mL; ID50/IC50 in TZM-bl [22]: > 25 µg/mL; ID50/IC50 in TZM-bl [23]: 1.6 µg/mL; IC50 (µg/ml) in TZM-bl [24]: 0.04 µg/mL; IC50 (µg/ml) in TZM-bl [25]: 0.62 µg/mL; IC50 (µg/ml) in TZM-bl [26]: 0.02 µg/mL; IC50 (µg/ml) in TZM-bl [27]: 0.73 µg/mL; IC50 (µg/ml) in TZM-bl [28]: 0.7 µg/mL; IC50 (µg/ml) in TZM-bl [29]: > 25 µg/mL; IC50 (µg/ml) in TZM-bl [30]: 1.6 µg/mL; IC50 (µg/ml) in TZM-bl [31]: > 25 µg/mL; IC50 (µg/ml) in TZM-bl [32]: 0.01 µg/mL; IC50 (µg/ml) in TZM-bl [33]: 0.15 µg/mL; ID50/IC50 in TZM-bl [34]: 0.62 µg/mL; ID50/IC50 in TZM-bl [35]: 0.04 µg/mL
3BNC117 (antibody) | 0.02 µg/mL | 0.03 µg/mL | 0.01 µg/mL | > 25 µg/mL | 18 µg/mL | 0.005 µg/mL | 0.004 µg/mL | 0.001 µg/mL | 0.001 µg/mL | 0.002 µg/mL | 0.002 µg/mL | 0.001 µg/mL | 0.001 µg/mL | 0.03 µg/mL | > 25 µg/mL | > 25 µg/mL | 0.01 µg/mL | 0.13 µg/mL | 0.006 µg/mL | 0.24 µg/mL | ID50/IC50 in TZM-bl [21]: 0.01 µg/mL; ID50/IC50 in TZM-bl [22]: 0.01 µg/mL; ID50/IC50 in TZM-bl [23]: 0.003 µg/mL; IC50 (µg/ml) in TZM-bl [24]: 0.02 µg/mL; IC50 (µg/ml) in TZM-bl [25]: 0.2 µg/mL; IC50 (µg/ml) in TZM-bl [26]: 0.006 µg/mL; IC50 (µg/ml) in TZM-bl [27]: 0.13 µg/mL; IC50 (µg/ml) in TZM-bl [28]: 0.01 µg/mL; IC50 (µg/ml) in TZM-bl [29]: 0.24 µg/mL; IC50 (µg/ml) in TZM-bl [30]: 0.003 µg/mL; IC50 (µg/ml) in TZM-bl [31]: 0.01 µg/mL; IC50 (µg/ml) in TZM-bl [32]: < 0.001 µg/mL; IC50 (µg/ml) in TZM-bl [33]: 0.003 µg/mL; ID50/IC50 in TZM-bl [34]: 0.2 µg/mL; ID50/IC50 in TZM-bl [35]: 0.02 µg/mL
